Non-standard residues stand in square brackets, D forms with d. Dab = NCC[C@H](N)C(=O)O; Aib = CC(C)(N)C(=O)O

The record followed here is US20240067696A1 (ZEALAND PHARMA A S, published 2024).

The target of the experiment is human glucagon receptor (human, UniProt P47871 26-477). In words: cell-based or functional assay.
human glucagon receptor, sequence (P47871 26-477): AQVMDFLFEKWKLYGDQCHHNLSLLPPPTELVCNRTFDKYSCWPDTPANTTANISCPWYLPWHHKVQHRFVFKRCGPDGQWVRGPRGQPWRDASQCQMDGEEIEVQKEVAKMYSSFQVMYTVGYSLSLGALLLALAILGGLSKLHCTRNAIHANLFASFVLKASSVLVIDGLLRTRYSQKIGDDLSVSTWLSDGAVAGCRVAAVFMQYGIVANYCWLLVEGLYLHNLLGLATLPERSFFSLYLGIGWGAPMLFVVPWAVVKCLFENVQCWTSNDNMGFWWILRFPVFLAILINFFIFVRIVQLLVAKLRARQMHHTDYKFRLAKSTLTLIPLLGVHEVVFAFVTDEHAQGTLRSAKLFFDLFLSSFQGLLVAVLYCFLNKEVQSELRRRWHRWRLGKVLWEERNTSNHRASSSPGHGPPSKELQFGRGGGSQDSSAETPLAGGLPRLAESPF

B1: Compound 30 (peptide)
peptide: H-HSQGTFTSDYSKYLD[Aib]ARAESFVKWLESA-OH
SMILES: CC(C)C[C@H](NC(=O)[C@H](Cc1c[nH]c2ccccc12)NC(=O)[C@H](CCCCN)NC(=O)[C@@H](NC(=O)[C@H](Cc1ccccc1)NC(=O)[C@H](CO)NC(=O)[C@H](CCC(=O)O)NC(=O)[C@H](C)NC(=O)[C@H](CCCNC(=N)N)NC(=O)[C@H](C)NC(=O)C(C)(C)NC(=O)[C@H](CC(=O)O)NC(=O)[C@H](CC(C)C)NC(=O)[C@H](Cc1ccc(O)cc1)NC(=O)[C@H](CCCCN)NC(=O)[C@H](CO)NC(=O)[C@H](Cc1ccc(O)cc1)NC(=O)[C@H](CC(=O)O)NC(=O)[C@H](CO)NC(=O)[C@@H](NC(=O)[C@H](Cc1ccccc1)NC(=O)[C@@H](NC(=O)CNC(=O)[C@H](CCC(N)=O)NC(=O)[C@H](CO)NC(=O)[C@@H](N)Cc1c[nH]cn1)[C@@H](C)O)[C@@H](C)O)C(C)C)C(=O)N[C@@H](CCC(=O)O)C(=O)N[C@@H](CO)C(=O)N[C@@H](C)C(=O)O
Take B1: the “GCG-R EC50 in vitro [nM] (cAMP, AlphaScreen, HEK293 cells expressing human Glucagon-R)” value (“GCG-R EC50 in vitro [nM]” for short) was 0.016 nM.

B2: Compound 34 (peptide)
peptide: H-HSQGTFTSDYSKYLD[Aib]ARAEKFVEWLEST-OH
SMILES: CC(C)C[C@H](NC(=O)[C@H](Cc1c[nH]c2ccccc12)NC(=O)[C@H](CCC(=O)O)NC(=O)[C@@H](NC(=O)[C@H](Cc1ccccc1)NC(=O)[C@H](CCCCN)NC(=O)[C@H](CCC(=O)O)NC(=O)[C@H](C)NC(=O)[C@H](CCCNC(=N)N)NC(=O)[C@H](C)NC(=O)C(C)(C)NC(=O)[C@H](CC(=O)O)NC(=O)[C@H](CC(C)C)NC(=O)[C@H](Cc1ccc(O)cc1)NC(=O)[C@H](CCCCN)NC(=O)[C@H](CO)NC(=O)[C@H](Cc1ccc(O)cc1)NC(=O)[C@H](CC(=O)O)NC(=O)[C@H](CO)NC(=O)[C@@H](NC(=O)[C@H](Cc1ccccc1)NC(=O)[C@@H](NC(=O)CNC(=O)[C@H](CCC(N)=O)NC(=O)[C@H](CO)NC(=O)[C@@H](N)Cc1c[nH]cn1)[C@@H](C)O)[C@@H](C)O)C(C)C)C(=O)N[C@@H](CCC(=O)O)C(=O)N[C@@H](CO)C(=O)N[C@H](C(=O)O)[C@@H](C)O
B2: the “GCG-R EC50 in vitro [nM]” value turned out to be 0.028 nM.

B3: Compound 32 (peptide)
peptide: H-HS[Dab](Ac)GTFTSDYSKYLD[Aib]ARAESFVKWLEST-OH
SMILES: CC(=O)NCC[C@H](NC(=O)[C@H](CO)NC(=O)[C@@H](N)Cc1c[nH]cn1)C(=O)NCC(=O)N[C@H](C(=O)N[C@@H](Cc1ccccc1)C(=O)N[C@H](C(=O)N[C@@H](CO)C(=O)N[C@@H](CC(=O)O)C(=O)N[C@@H](Cc1ccc(O)cc1)C(=O)N[C@@H](CO)C(=O)N[C@@H](CCCCN)C(=O)N[C@@H](Cc1ccc(O)cc1)C(=O)N[C@@H](CC(C)C)C(=O)N[C@@H](CC(=O)O)C(=O)NC(C)(C)C(=O)N[C@@H](C)C(=O)N[C@@H](CCCNC(=N)N)C(=O)N[C@@H](C)C(=O)N[C@@H](CCC(=O)O)C(=O)N[C@@H](CO)C(=O)N[C@@H](Cc1ccccc1)C(=O)N[C@H](C(=O)N[C@@H](CCCCN)C(=O)N[C@@H](Cc1c[nH]c2ccccc12)C(=O)N[C@@H](CC(C)C)C(=O)N[C@@H](CCC(=O)O)C(=O)N[C@@H](CO)C(=O)N[C@H](C(=O)O)[C@@H](C)O)C(C)C)[C@@H](C)O)[C@@H](C)O
B3: the “GCG-R EC50 in vitro [nM]” value is 0.0093 nM.

B4: Compound 33 (peptide)
peptide: H-HSQGTFTSDYSKYLD[Aib]ARAEEFVSWLEKT-OH
SMILES: CC(C)C[C@H](NC(=O)[C@H](Cc1c[nH]c2ccccc12)NC(=O)[C@H](CO)NC(=O)[C@@H](NC(=O)[C@H](Cc1ccccc1)NC(=O)[C@H](CCC(=O)O)NC(=O)[C@H](CCC(=O)O)NC(=O)[C@H](C)NC(=O)[C@H](CCCNC(=N)N)NC(=O)[C@H](C)NC(=O)C(C)(C)NC(=O)[C@H](CC(=O)O)NC(=O)[C@H](CC(C)C)NC(=O)[C@H](Cc1ccc(O)cc1)NC(=O)[C@H](CCCCN)NC(=O)[C@H](CO)NC(=O)[C@H](Cc1ccc(O)cc1)NC(=O)[C@H](CC(=O)O)NC(=O)[C@H](CO)NC(=O)[C@@H](NC(=O)[C@H](Cc1ccccc1)NC(=O)[C@@H](NC(=O)CNC(=O)[C@H](CCC(N)=O)NC(=O)[C@H](CO)NC(=O)[C@@H](N)Cc1c[nH]cn1)[C@@H](C)O)[C@@H](C)O)C(C)C)C(=O)N[C@@H](CCC(=O)O)C(=O)N[C@@H](CCCCN)C(=O)N[C@H](C(=O)O)[C@@H](C)O
On to B4, for which the “GCG-R EC50 in vitro [nM]” value is 0.044 nM.

B5: Compound 35 (peptide)
peptide: H-HSQGTFTSDYSKYLD[Aib]ARAEEFVAWLEST-OH
SMILES: CC(C)C[C@H](NC(=O)[C@H](Cc1c[nH]c2ccccc12)NC(=O)[C@H](C)NC(=O)[C@@H](NC(=O)[C@H](Cc1ccccc1)NC(=O)[C@H](CCC(=O)O)NC(=O)[C@H](CCC(=O)O)NC(=O)[C@H](C)NC(=O)[C@H](CCCNC(=N)N)NC(=O)[C@H](C)NC(=O)C(C)(C)NC(=O)[C@H](CC(=O)O)NC(=O)[C@H](CC(C)C)NC(=O)[C@H](Cc1ccc(O)cc1)NC(=O)[C@H](CCCCN)NC(=O)[C@H](CO)NC(=O)[C@H](Cc1ccc(O)cc1)NC(=O)[C@H](CC(=O)O)NC(=O)[C@H](CO)NC(=O)[C@@H](NC(=O)[C@H](Cc1ccccc1)NC(=O)[C@@H](NC(=O)CNC(=O)[C@H](CCC(N)=O)NC(=O)[C@H](CO)NC(=O)[C@@H](N)Cc1c[nH]cn1)[C@@H](C)O)[C@@H](C)O)C(C)C)C(=O)N[C@@H](CCC(=O)O)C(=O)N[C@@H](CO)C(=O)N[C@H](C(=O)O)[C@@H](C)O
Consider B5, for which the “GCG-R EC50 in vitro [nM]” value was determined as 0.014 nM.

B6: Compound 37 (peptide)
peptide: H-HSQGTFTSDYSKYLE[Aib]ARAEEFVKWLEST-OH
SMILES: CC(C)C[C@H](NC(=O)[C@H](Cc1c[nH]c2ccccc12)NC(=O)[C@H](CCCCN)NC(=O)[C@@H](NC(=O)[C@H](Cc1ccccc1)NC(=O)[C@H](CCC(=O)O)NC(=O)[C@H](CCC(=O)O)NC(=O)[C@H](C)NC(=O)[C@H](CCCNC(=N)N)NC(=O)[C@H](C)NC(=O)C(C)(C)NC(=O)[C@H](CCC(=O)O)NC(=O)[C@H](CC(C)C)NC(=O)[C@H](Cc1ccc(O)cc1)NC(=O)[C@H](CCCCN)NC(=O)[C@H](CO)NC(=O)[C@H](Cc1ccc(O)cc1)NC(=O)[C@H](CC(=O)O)NC(=O)[C@H](CO)NC(=O)[C@@H](NC(=O)[C@H](Cc1ccccc1)NC(=O)[C@@H](NC(=O)CNC(=O)[C@H](CCC(N)=O)NC(=O)[C@H](CO)NC(=O)[C@@H](N)Cc1c[nH]cn1)[C@@H](C)O)[C@@H](C)O)C(C)C)C(=O)N[C@@H](CCC(=O)O)C(=O)N[C@@H](CO)C(=O)N[C@H](C(=O)O)[C@@H](C)O
On to B6, for which the “GCG-R EC50 in vitro [nM]” value was determined as 0.094 nM.

For H-HSQGTFTSDYSKYLDSARAEDFVKWLEET-OH [Compound 2], the “GCG-R EC50 in vitro [nM]” value was 0.18 nM.

B7: Compound 29 (peptide)
peptide: H-HSQGTFTSDYSKYLD[Aib]ARAKSFVEWLEKT-OH
SMILES: CC(C)C[C@H](NC(=O)[C@H](Cc1c[nH]c2ccccc12)NC(=O)[C@H](CCC(=O)O)NC(=O)[C@@H](NC(=O)[C@H](Cc1ccccc1)NC(=O)[C@H](CO)NC(=O)[C@H](CCCCN)NC(=O)[C@H](C)NC(=O)[C@H](CCCNC(=N)N)NC(=O)[C@H](C)NC(=O)C(C)(C)NC(=O)[C@H](CC(=O)O)NC(=O)[C@H](CC(C)C)NC(=O)[C@H](Cc1ccc(O)cc1)NC(=O)[C@H](CCCCN)NC(=O)[C@H](CO)NC(=O)[C@H](Cc1ccc(O)cc1)NC(=O)[C@H](CC(=O)O)NC(=O)[C@H](CO)NC(=O)[C@@H](NC(=O)[C@H](Cc1ccccc1)NC(=O)[C@@H](NC(=O)CNC(=O)[C@H](CCC(N)=O)NC(=O)[C@H](CO)NC(=O)[C@@H](N)Cc1c[nH]cn1)[C@@H](C)O)[C@@H](C)O)C(C)C)C(=O)N[C@@H](CCC(=O)O)C(=O)N[C@@H](CCCCN)C(=O)N[C@H](C(=O)O)[C@@H](C)O
As for B7, the “GCG-R EC50 in vitro [nM]” value amounted to 0.023 nM.

B8: Compound 36 (peptide)
peptide: H-HSQGTFTSDYSKYLD[Aib]ARAEEFVKWLEET-OH
SMILES: CC(C)C[C@H](NC(=O)[C@H](Cc1c[nH]c2ccccc12)NC(=O)[C@H](CCCCN)NC(=O)[C@@H](NC(=O)[C@H](Cc1ccccc1)NC(=O)[C@H](CCC(=O)O)NC(=O)[C@H](CCC(=O)O)NC(=O)[C@H](C)NC(=O)[C@H](CCCNC(=N)N)NC(=O)[C@H](C)NC(=O)C(C)(C)NC(=O)[C@H](CC(=O)O)NC(=O)[C@H](CC(C)C)NC(=O)[C@H](Cc1ccc(O)cc1)NC(=O)[C@H](CCCCN)NC(=O)[C@H](CO)NC(=O)[C@H](Cc1ccc(O)cc1)NC(=O)[C@H](CC(=O)O)NC(=O)[C@H](CO)NC(=O)[C@@H](NC(=O)[C@H](Cc1ccccc1)NC(=O)[C@@H](NC(=O)CNC(=O)[C@H](CCC(N)=O)NC(=O)[C@H](CO)NC(=O)[C@@H](N)Cc1c[nH]cn1)[C@@H](C)O)[C@@H](C)O)C(C)C)C(=O)N[C@@H](CCC(=O)O)C(=O)N[C@@H](CCC(=O)O)C(=O)N[C@H](C(=O)O)[C@@H](C)O
For B8, the “GCG-R EC50 in vitro [nM]” value worked out at 0.01 nM.

B9: Compound 31 (peptide)
peptide: H-HSQGTFTSDYSKYLD[Aib]ARAESFVKWLEST-NH2
SMILES: CC(C)C[C@H](NC(=O)[C@H](Cc1c[nH]c2ccccc12)NC(=O)[C@H](CCCCN)NC(=O)[C@@H](NC(=O)[C@H](Cc1ccccc1)NC(=O)[C@H](CO)NC(=O)[C@H](CCC(=O)O)NC(=O)[C@H](C)NC(=O)[C@H](CCCNC(=N)N)NC(=O)[C@H](C)NC(=O)C(C)(C)NC(=O)[C@H](CC(=O)O)NC(=O)[C@H](CC(C)C)NC(=O)[C@H](Cc1ccc(O)cc1)NC(=O)[C@H](CCCCN)NC(=O)[C@H](CO)NC(=O)[C@H](Cc1ccc(O)cc1)NC(=O)[C@H](CC(=O)O)NC(=O)[C@H](CO)NC(=O)[C@@H](NC(=O)[C@H](Cc1ccccc1)NC(=O)[C@@H](NC(=O)CNC(=O)[C@H](CCC(N)=O)NC(=O)[C@H](CO)NC(=O)[C@@H](N)Cc1c[nH]cn1)[C@@H](C)O)[C@@H](C)O)C(C)C)C(=O)N[C@@H](CCC(=O)O)C(=O)N[C@@H](CO)C(=O)N[C@H](C(N)=O)[C@@H](C)O
As for B9, the “GCG-R EC50 in vitro [nM]” value was determined as 0.0072 nM.
